According to patent US9371393B2, “Class I anti-CEA antibodies and uses thereof” (Immunomedics, Inc., priority 2009, dated 2016):

T1: NCA-95 (HeLa-CGM6/1) (Homo sapiens, UniProt P31997)
T1 construct: expressed in transfected cells; host or cells: HeLa (HeLa-CGM6/1)
T1 sequence (P31997 35-320): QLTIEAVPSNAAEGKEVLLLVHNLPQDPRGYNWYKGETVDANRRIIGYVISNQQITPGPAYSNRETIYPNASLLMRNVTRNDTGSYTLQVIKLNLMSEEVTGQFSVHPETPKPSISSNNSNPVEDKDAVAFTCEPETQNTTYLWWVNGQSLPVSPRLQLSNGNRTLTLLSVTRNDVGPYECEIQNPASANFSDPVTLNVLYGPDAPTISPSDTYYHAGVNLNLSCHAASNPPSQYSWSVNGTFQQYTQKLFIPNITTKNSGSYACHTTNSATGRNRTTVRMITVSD

B1: MN-15: murine Class I anti-CEA MAb, IgG1 kappa, binds A1B1 domain of CEACAM5 and CEACAM6 (antibody, V domains shown)
VL: DIQLTQSPAIMSASPGEKVTMTCSASSRVSYIHWYQQKSGTSPKRWIYGTSTLASGVPARFSGSGSGTSYSLTISSMEAEDAATYYCQQWSYNPPTFGAGTKLELKR
VH: EVRLVESGGGLVQGPGSLRLSCAASGFALTDYYMSWVRQSPGKTLEWLGFIANKANGHTTDYSPSVKGRFTISRDNSQTILYLQMNTLRTEDSATYYCARDMGIRWNFDVWGQGTTVTVSS
B2: MN-15 Fab′: monovalent Fab′ fragment of murine MN-15 (antibody, V domains shown)
VL: B1 VL
VH: B1 VH

Key:
[1] = tested on: BXPC3 binding to fibronectin; assay: Adhesion to extracellular matrix proteins assay, BXPC3; type: cell-based, human
Procedure: (§1) Adhesion to extracellular matrix proteins assay—The assay was done using the CYTOMATRIX™ screening kit from CHEMICON® (Kit #ECM205, Temecula, Calif.). The kit contains 96-well plates with strips coated with fibronectin, vitronectin, laminin, collagen-I, or collagen-IV. Subconfluent cell cultures were used for these studies. Cells (1×10^6 cells/mol) were seeded onto coated substrate and incubated at 37° C. for 1 hour in a CO2 incubator in PBS containing Ca^2+/Mg^2+ (200 μL per well). Adherent cells were fixed and stained. The plate was washed to remove unadhered cells and stained with 100 μL per well of MTS (Cell Titer Aq 96, PROMEGA®, Madison, Wis.) for 5 minutes at room temperature. Excess stain was removed with three PBS washes. Solubilization buffer [100 μL of a 50:50 mixture of 0.1 mol/L NaH2PO4 (pH 4.5) and 50% ethanol] was added to each well. Relative attachment was determined using absorbance readings (A540 nm-A570 nm).

NCA-95 (HeLa-CGM6/1) = biological target: T1, NCA-95 (HeLa-CGM6/1); assay: Indirect flow cytometry, HeLa-CGM6/1; type: binding; conditions: antibodies at 1/50 dilution of 1 mg/ml stocks
Procedure: The reactivity of antibodies was tested by flow cytometry with a Becton-Dickinson FACSCAN®. The biotinylated second antibody was directed against mouse IgG and was detected by a streptavidin/phycoerythrin conjugate. Tests were carried out with antibodies at 1/50 dilution of 1 mg/ml stocks.
The antibodies MN-3 and MN-15 were tested for recognition of HeLa cells transfected with cDNA coding for CEA (HeLa-CEA2), NCA-90 (HeLa-KNC6/S44) and NCA-95 (HeLa-CGM6/1). As a negative control, HeLa cells transfected with the plasmid pSV2-Neo (control HeLa cells, HeLa-NeoA) were used. In addition to the antibodies MN-3 and MN-15, three control antibodies were included: […]

[2] = tested on: ZR75-30 binding to fibronectin; assay: Adhesion to extracellular matrix proteins assay, ZR75-30; type: cell-based, human
Procedure: as §1

MCF-7 cells = assay: Collagen-based invasion assay, MCF-7; type: cell-based, human; conditions: 10% FBS chemoattractant, 72-hour incubation
Procedure: (§2) Collagen-based invasion assay—The assay was done using CHEMICON® Kit (#ECM551, MILLIPORE®, Billerica, Mass.). Tumor cells at 80% confluence and were serum-starved for 18 to 24 hours before the assay was used. Cells were harvested with 5 mol of 2 mmol/L EDTA/PBS per 100-mm dish and incubated at 37° C. for 5 to 15 minutes. Cells were collected into 10 to 20 mol of quenching medium (serum-free DMEM containing 5% BSA) to inactivate trypsin/EDTA from the harvesting buffer. Cells were pelleted, resuspended in quenching medium (1×10^6 cells/mol), and appropriate antibody Fabs were added to individual cell aliquots. Cell invasion potential was determined as follows. Baseline invasion and invasion in the presence of a chemoattractant (10% FBS) were measured after a 72-hour incubation period at 37° C. in a 5% CO2 incubator. The bottom side of the collagen-coated polycarbonate membrane insert of the invasion chamber was placed in 400 μL of cell stain for 20 minutes at room temperature and washed. The dye was extracted and transferred into a 96-well microtiter plate for colorimetric measurements (A560 nm).

CaPAN-1 cells = assay: Collagen-based invasion assay, CaPAN-1; type: cell-based, human; conditions: 10% FBS chemoattractant, 72-hour incubation
Procedure: as §2

[3] = tested on: MCA38 (CEACAM5−/CEACAM6−) adhesion to HUVEC; assay: Endothelial cell adhesion assay, MCA38; type: cell-based, murine; conditions: 10 μg/mol Fab′
Procedure: Percentage adhesion of various tumor cells with varying amounts of expressed CEACAM5 and CEACAM6 to HUVEC cells in the absence or presence of MN-15 Fab′, MN-3 Fab′, or Ag8 Fab′ control. Cells were labeled with 1 μCi/mL of ^3H-thymidine and added to HUVEC cultures and incubated for 30 minutes at 37° C. Samples were washed thrice with PBS to remove unattached cells. Attached tumor cells were solubilized with 0.1 N NaOH and radioactivity was measured in a B-scintillation counter. The cpm attached/total cpm added (attaching potential) was determined. Results of a typical study are presented. Cell lines used include BT-20 (CEACAM5+/CEACAM6+), MCF-7 (CEACAM5−/CEACAM6+), HT-29 (CEACAM5−/CEACAM6+), Moser (CEACAM5+/CEACAM6−), MCA38cea (CEACAM5+/CEACAM6−), and MCA38 (CEACAM5−/CEACAM6−).
Endothelial cell adhesion assay—Human umbilical vein endothelial cells (HUVEC; Cambrex, San Diego, Calif.) were grown in collagen-coated dishes in EGM Media in a humidified atmosphere with 5% CO2 at 37° C. At passages 2 to 5, cells were plated at a density of 4×10^4 cells per well in 96-well plates 24 hours before the assay. Interleukin-1β (IL-1β, 1 ng/mol) was added 4 hours before the assay. […] Attached cells were solubilized with 0.1 N NaOH and radioactivity was measured in a β scintillation counter. The cpm attached/total cpm added (attaching potential) was determined.

LS174T cells = assay: Collagen-based invasion assay, LS174T; type: cell-based, human; conditions: 10% FBS chemoattractant, 72-hour incubation
Procedure: as §2

[4] = tested on: HT-29 cells adhesion to HUVEC; assay: Endothelial cell adhesion assay, HT-29; type: cell-based, human
Procedure: Endothelial cell adhesion assay—Human umbilical vein endothelial cells (HUVEC; Cambrex, San Diego, Calif.) were grown in collagen-coated dishes in EGM Media in a humidified atmosphere with 5% CO2 at 37° C. At passages 2 to 5, cells were plated at a density of 4×10^4 cells per well in 96-well plates 24 hours before the assay. Interleukin-1β (IL-1β, 1 ng/mol) was added 4 hours before the assay. At the start of the study, the medium with the IL-1β was removed and fresh DMEM with 1% bovine serum albumin (BSA) added and incubated for 30 minutes. Fresh medium without antibodies or with 10 μg/mol of MN-15 Fab′, MN-3 Fab′, or Ag8 Fab′ was added. Tumor cells (1×10^6 cells/mol) prelabeled overnight with ^3H-thymidine (100 μL per well using 1.0 μCi/mL) were added to HUVEC cultures and incubated for 30 minutes at 37° C. with rotation in medium with 20% FBS. Samples were washed thrice with PBS to remove unattached cells. Attached cells were solubilized with 0.1 N NaOH and radioactivity was measured in a β scintillation counter. The cpm attached/total cpm added (attaching potential) was determined.

Molecule	effect on binding to fibronectin [1]	binding to NCA-95 (NCA-95 (HeLa-CGM6/1))	effect on binding to fibronectin [2]	reduction in cell invasion (MCF-7 cells) [%]	reduction in cell invasion (CaPAN-1 cells) [%]	effect on tumor cell-endothelial cell adhesion [3]	reduction in cell invasion (LS174T cells) [%]	decrease in adhesion [4] [%]
B1	not affecting the binding	binds to all three antigens	not affecting the binding					
B2				77	73	neither MN-3 Fab′ targeting the N domain nor MN-15 Fab′ targeting the A1B1 domain of CEACAM6 had an effect	30	48
